Measured values: US20260151494A1 (ARO BIOTHERAPEUTICS, published 2026)
Where a chain is given by its changes, count along the chain named.

B1: CD71-binding FN3 domain of SEQ ID NO: 470 (designed binder)
chain: MLPAPKNLVVSRVTEDSARLSWTAPDAAFDSFFIGYLEPQPPGEAITLLVPGSERSYDLTGLKPGTEYNVTIQGVKGGFPSMPLSAIFTT
B2: CD71-binding FN3 domain of SEQ ID NO: 472 (designed binder)
chain: B1 chain with T47E, L49Y, M82L, S85V, I87T
B3: CD71-binding FN3 domain of SEQ ID NO: 486 (designed binder)
chain: B1 chain with K6E, P25L, T47S, F79I, P80A, M82E, I87A
B4: CD71-binding FN3 domain of SEQ ID NO: 485 (designed binder)
chain: B1 chain with T47H, L49W, M82L, S85L, I87K
B5: CD71-binding FN3 domain of SEQ ID NO: 478 (designed binder)
chain: B1 chain with T47H, L49Y, M82V, S85I, I87K
B6: CD71-binding FN3 domain of SEQ ID NO: 481 (designed binder)
chain: B1 chain with L49Y, L59M, M82L, S85Q, I87H
B7: CD71-binding FN3 domain of SEQ ID NO: 482 (designed binder)
chain: B1 chain with V9I, T47H, L49Q, M82N, S85H, I87E
B8: CD71-binding FN3 domain of SEQ ID NO: 474 (designed binder)
chain: B1 chain with T47G, L49A, M82E, S85I, I87D
B9: CD71-binding FN3 domain of SEQ ID NO: 512 (designed binder)
chain: B1 chain with T47D, L49W, M82D, S85D, I87H
B10: CD71-binding FN3 domain of SEQ ID NO: 479 (designed binder)
chain: B1 chain with T47N, L49W, M82T, S85F, I87G
B11: CD71-binding FN3 domain of SEQ ID NO: 500 (designed binder)
chain: B1 chain with T47D
B12: CD71-binding FN3 domain of SEQ ID NO: 499 (designed binder)
chain: B1 chain with T47S, L49Y, M82S, S85F, I87D
B13: CD71-binding FN3 domain of SEQ ID NO: 511 (designed binder)
chain: B1 chain with T47D, L49F, M82L, S85V, I87S
B14: CD71-binding FN3 domain of SEQ ID NO: 473 (designed binder)
chain: B1 chain with T47D, L49W, M82L, I87S
B15: CD71-binding FN3 domain of SEQ ID NO: 491 (designed binder)
chain: B1 chain with P42S, T47H, L49I, M82D, S85V, I87S
B16: CD71-binding FN3 domain of SEQ ID NO: 498 (designed binder)
chain: B1 chain with T47I, L49W, M82I, S85I, I87V
B17: CD71-binding FN3 domain of SEQ ID NO: 487 (designed binder)
chain: B1 chain with T47G, L49R, M82E, S85I, I87D
B18: CD71-binding FN3 domain of SEQ ID NO: 508 (designed binder)
chain: B1 chain with L49S, M82E, S85I
B19: CD71-binding FN3 domain of SEQ ID NO: 504 (designed binder)
chain: B1 chain with T47G, L49V, M82H, S85G
B20: CD71-binding FN3 domain of SEQ ID NO: 493 (designed binder)
chain: B1 chain with T47L, L49A, M82L, S85V, I87H
B21: CD71-binding FN3 domain of SEQ ID NO: 505 (designed binder)
chain: B1 chain with P25L, T47H, L49F, M82E, S85I, I87N
B22: CD71-binding FN3 domain of SEQ ID NO: 494 (designed binder)
chain: B1 chain with A24T, T47S, L49Y
B23: CD71-binding FN3 domain of SEQ ID NO: 501 (designed binder)
chain: B1 chain with T47S, M82V
B24: CD71-binding FN3 domain of SEQ ID NO: 483 (designed binder)
chain: B1 chain with L49V, M82D, S85V, I87S
B25: CD71-binding FN3 domain of SEQ ID NO: 502 (designed binder)
chain: B1 chain with T47G, L49H, M82I, S85E, I87K
B26: CD71-binding FN3 domain of SEQ ID NO: 490 (designed binder)
chain: B1 chain with T47S, L49Q, M82A, S85V, I87N
B27: CD71-binding FN3 domain of SEQ ID NO: 497 (designed binder)
chain: B1 chain with M82K, S85Y, I87Y
B28: CD71-binding FN3 domain of SEQ ID NO: 476 (designed binder)
chain: B1 chain with T47H, L49Q, M82I, S85I, I87V
B29: CD71-binding FN3 domain of SEQ ID NO: 475 (designed binder)
chain: B1 chain with L49Y, M82I, I87E
B30: CD71-binding FN3 domain of SEQ ID NO: 496 (designed binder)
chain: B1 chain with T47I, L49W, M82V, S85I, I87Q

These binders were tested against T1, apical domain of human CD71 (human, UniProt P02786 189-383, limits assumed) (assay: primary ELISA, RLU over HSA).
T1 construct: domain: apical domain; Screen 4 panned on human apical domains, the ELISA text says only 'apical domain'
T1 sequence (P02786 189-383 limits assumed): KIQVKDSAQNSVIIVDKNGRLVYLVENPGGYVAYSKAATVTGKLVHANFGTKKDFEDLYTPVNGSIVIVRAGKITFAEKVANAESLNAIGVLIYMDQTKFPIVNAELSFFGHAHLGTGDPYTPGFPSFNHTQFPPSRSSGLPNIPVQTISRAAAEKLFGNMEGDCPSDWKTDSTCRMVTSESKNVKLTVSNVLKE

| Binder | Apical domain:HSA |
| --- | --- |
| B1 | 152 |
| B2 | 178 |
| B3 | 335 |
| B4 | 86 |
| B5 | 61 |
| B6 | 803 |
| B7 | 295 |
| B8 | 279 |
| B9 | 233 |
| B10 | 373 |
| B11 | 169 |
| B12 | 148 |
| B13 | 53 |
| B14 | 91 |
| B15 | 288 |
| B16 | 112 |
| B17 | 220 |
| B18 | 222 |
| B19 | 172 |
| B20 | 172 |
| B21 | 54 |
| B22 | 369 |
| B23 | 606 |
| B24 | 154 |
| B25 | 222 |
| B26 | 281 |
| B27 | 358 |
| B28 | 215 |
| B29 | 94 |
| B30 | 47 |

These binders were tested against T2, human CD71 extracellular domain (human, UniProt P02786 89-760, biotinylated) (assay: primary ELISA, RLU over HSA).
T2 construct: also called hCD71; CD71-ECD
T2 sequence (P02786 89-760): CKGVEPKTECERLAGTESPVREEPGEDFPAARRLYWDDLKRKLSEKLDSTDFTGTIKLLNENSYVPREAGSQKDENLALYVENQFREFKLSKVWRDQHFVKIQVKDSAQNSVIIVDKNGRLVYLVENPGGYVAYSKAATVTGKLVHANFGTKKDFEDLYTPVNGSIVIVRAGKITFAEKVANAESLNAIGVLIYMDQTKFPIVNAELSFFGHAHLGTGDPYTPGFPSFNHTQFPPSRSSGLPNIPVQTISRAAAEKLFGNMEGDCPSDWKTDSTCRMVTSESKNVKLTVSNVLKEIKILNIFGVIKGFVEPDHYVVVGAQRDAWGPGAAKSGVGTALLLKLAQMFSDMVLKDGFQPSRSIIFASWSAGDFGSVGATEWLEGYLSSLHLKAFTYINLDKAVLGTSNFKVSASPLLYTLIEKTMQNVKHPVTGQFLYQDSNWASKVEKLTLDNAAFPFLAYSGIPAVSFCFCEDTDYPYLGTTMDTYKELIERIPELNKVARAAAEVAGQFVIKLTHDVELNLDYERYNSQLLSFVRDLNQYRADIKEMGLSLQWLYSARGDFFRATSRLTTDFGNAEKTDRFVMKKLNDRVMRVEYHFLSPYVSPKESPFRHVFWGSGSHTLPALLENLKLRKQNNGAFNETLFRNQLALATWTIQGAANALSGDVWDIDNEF

| Binder | hCD71:HSA |
| --- | --- |
| B1 | 79 |
| B2 | 162 |
| B3 | 297 |
| B4 | 66 |
| B5 | 56 |
| B6 | 816 |
| B7 | 247 |
| B8 | 312 |
| B9 | 124 |
| B10 | 206 |
| B11 | 147 |
| B12 | 132 |
| B13 | 49 |
| B14 | 88 |
| B15 | 265 |
| B16 | 113 |
| B17 | 146 |
| B18 | 264 |
| B19 | 78 |
| B20 | 190 |
| B21 | 52 |
| B22 | 356 |
| B23 | 399 |
| B24 | 136 |
| B25 | 141 |
| B26 | 403 |
| B27 | 229 |
| B28 | 262 |
| B29 | 101 |
| B30 | 43 |

Each binder was assayed against T1, apical domain of human CD71 (assay: primary ELISA; also: test concentration or dose not given here).

| Binder | RLU [RLU] |
| --- | --- |
| B1 | 4.74e+06 |
| B2 | 4.97e+06 |
| B3 | 1.98e+06 |
| B4 | 3.23e+06 |
| B5 | 5.9e+06 |
| B6 | 3.65e+06 |
| B7 | 2.66e+06 |
| B8 | 2.72e+06 |
| B9 | 3.87e+06 |
| B10 | 4.83e+06 |
| B11 | 3.39e+06 |
| B12 | 3.13e+06 |
| B13 | 5.48e+06 |
| B14 | 3.03e+06 |
| B15 | 5.07e+06 |
| B16 | 5.67e+06 |
| B17 | 3.43e+06 |
| B18 | 3.55e+06 |
| B19 | 2.68e+06 |
| B20 | 2.5e+06 |
| B21 | 5.64e+06 |
| B22 | 3.32e+06 |
| B23 | 4.88e+06 |
| B24 | 3.47e+06 |
| B25 | 2.34e+06 |
| B26 | 2.9e+06 |
| B27 | 4.58e+06 |
| B28 | 3.4e+06 |
| B29 | 3.21e+06 |
| B30 | 5.66e+06 |

These binders were tested against T2, human CD71 extracellular domain (assay: primary ELISA; also: test concentration or dose not given here).

| Binder | RLU [RLU] |
| --- | --- |
| B1 | 2.47e+06 |
| B2 | 4.52e+06 |
| B3 | 1.75e+06 |
| B4 | 2.47e+06 |
| B5 | 5.39e+06 |
| B6 | 3.71e+06 |
| B7 | 2.23e+06 |
| B8 | 3.04e+06 |
| B9 | 2.06e+06 |
| B10 | 2.66e+06 |
| B11 | 2.95e+06 |
| B12 | 2.78e+06 |
| B13 | 5.03e+06 |
| B14 | 2.91e+06 |
| B15 | 4.66e+06 |
| B16 | 5.7e+06 |
| B17 | 2.27e+06 |
| B18 | 4.22e+06 |
| B19 | 1.22e+06 |
| B20 | 2.75e+06 |
| B21 | 5.38e+06 |
| B22 | 3.2e+06 |
| B23 | 3.21e+06 |
| B24 | 3.05e+06 |
| B25 | 1.49e+06 |
| B26 | 4.15e+06 |
| B27 | 2.93e+06 |
| B28 | 4.15e+06 |
| B29 | 3.46e+06 |
| B30 | 5.27e+06 |
